Article PMC2714072

Legend:
[1] = target: SYT/S (short isoform of SYT/SS18), monkey (Cos-1) (monkey (endogenous in Cos-1)); test: co-IP; endogenous proteins; post-nuclear (cytosolic) lysates of U2OS or Cos-1 cells in MLB buffer (25 mM HEPES pH 7.5, 150 mM NaCl, 1% Igepal CA-630, 10 mM MgCl2, 1 mM EDTA, 2% glycerol, 1 mM ATP); 1 µg pSYT or SYT/L-specific antibody overnight, Protein G PLUS-Agarose, 3 washes with RIPA buffer; bands stained with SYPRO Ruby, excised and identified by nano LC/MS/MS; controls: IgG and lysates of panSYT229 RNAi cells; Cos-1 lysates also pre-incubated with 100 µM GTP-γS or 1 mM GDP for 30 min at 30°C
[2] = target: SYT/L (long isoform of SYT/SS18), monkey (Cos-1) (monkey (endogenous in Cos-1)); test: as above

- difference in co-immunoprecipitated level between lysates with GTP-γS and with GDP [1]: < 5%
- difference in co-immunoprecipitated level between lysates with GTP-γS and with GDP [2]: < 5%
Substance: actin, monkey (Cos-1) (from UniProt Q76N69 1-375) (natural protein)
